Reference: PMC5031973

Biological target: recombinant human β-actin (wild type) (human) (UniProt P60709)
Assay: ITC; VP-ITC, 25 °C, G-buffer (5 mM Tris-HCl pH 7.8, 0.1 mM CaCl2, 0.2 mM DTT, 0.2 mM ATP, 0.01% NaN3); 29 injections of 10 μl Tβ4 (100 μM) into actin (10 μM) in the cell

thymosin β4 (from UniProt P62328 1-44) (peptide)
Kd: 0.5 µM
